This experiment deals with T1, 重组人AXL蛋白 (recombinant human AXL protein) (human, UniProt P30530 26-449, limits assumed).
T1 construct: also called 重组人AXL截短蛋白; 人受体酪氨酸激酶AXL
T1 sequence (looked up): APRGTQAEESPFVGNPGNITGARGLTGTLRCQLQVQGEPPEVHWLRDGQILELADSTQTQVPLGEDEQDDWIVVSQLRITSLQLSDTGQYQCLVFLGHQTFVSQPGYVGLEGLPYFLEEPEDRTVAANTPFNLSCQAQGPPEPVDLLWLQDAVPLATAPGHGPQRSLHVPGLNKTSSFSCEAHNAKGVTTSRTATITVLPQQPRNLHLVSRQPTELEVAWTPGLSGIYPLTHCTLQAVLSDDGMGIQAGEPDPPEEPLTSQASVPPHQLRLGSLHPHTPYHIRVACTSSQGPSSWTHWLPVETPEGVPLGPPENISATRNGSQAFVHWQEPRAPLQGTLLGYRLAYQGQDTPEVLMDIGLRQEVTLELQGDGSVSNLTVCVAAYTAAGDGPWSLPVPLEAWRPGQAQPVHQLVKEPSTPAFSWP
As to the kind of experiment: BLI (Gator biomolecular interaction analyser), antibody against recombinant human AXL.

For 2 molecules, Kd, koff and kon results are on record in patent publication CN116715774A (WUHAN ABCLONAL INC, dated 2023).

One may read the Kd as the free concentration of one partner at which half of the binding sites on the other are occupied at equilibrium, for simple one-to-one binding. The term koff denotes a measure of how fast the partners let go of each other. The term kon denotes the second-order rate constant of association.

B1: 兔单克隆抗体B (rabbit monoclonal antibody B against human AXL) (antibody, V domains shown)
VH: QEQLKESGGGLVQPGGSLKLSCKASGFSLSYYGVNWVRQAPGKGLEWIACIDPVFGATYYASWVNDRFTISSHNAQNTLYLQLSSLTPADTATYFCARGRYYRYGYTYATGMDIWGPGTLVTVSS
VL: AIDMTQTPSSVSAAVGDTVTINCQASEDIYSFLAWYQQKPGHSPKLLIYDASKLASGVSSRFKGSGSGTQFTLTISGVQCDDAATYYCQQTYSVSNADTAFGGGTEVVVKG
notes: also called 抗人AXL兔单克隆抗体B
With B1, the Kd is 1.14 nM, the koff was determined as 0.000387 s⁻¹ and the kon worked out at 341000 M⁻¹ s⁻¹.

B2: 兔单克隆抗体A (rabbit monoclonal antibody A against human AXL) (antibody, V domains shown)
VH: QSVEESGGRLVTPGTPLTLTCTVSGIDLSTYAMIWVRQAPGEGLEWIGTIYTDGATAYARWAKGRFTISKTSTTVDLKMTSLTTEDTATYFCARGFGISKFVFSLWGPGTLVTVSL
VL: DIVMTQTPASVEAAVGDTVTIKCQASQNIYSNLAWYQQKPGQPPKLLIYFASNLPSGVPSRFKGSGSGTEYTLTISGVQCDDAATYYCQNYYINEIVFGGGTEVVVKG
notes: also called 抗人AXL兔单克隆抗体A
B2: the Kd was determined as 0.555 nM, the koff turned out to be 0.000132 s⁻¹ and the kon was 237000 M⁻¹ s⁻¹.
